PMC10397247

Tests used:
Assay in all cases: two-hybrid library CCmax;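 note: natural log of median RNA to DNA barcode read ratio; higher means stronger binding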
4H2728-AA = target: T1, 4H2728-AA
T1 chain: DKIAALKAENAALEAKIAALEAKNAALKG

4H2774-AA = target: T2, 4H2774-AA; conditions: mean of both orientations
T2 chain: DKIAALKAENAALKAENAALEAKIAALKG

4H2903-AA = target: T3, 4H2903-AA; conditions: mean of both orientations
T3 chain: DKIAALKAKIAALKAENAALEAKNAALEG

4H2961-AA = target: T4, 4H2961-AA; conditions: mean of both orientations
T4 chain: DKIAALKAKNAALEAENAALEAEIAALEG

4H3049-AA = target: T5, 4H3049-AA; conditions: mean of both orientations
T5 chain: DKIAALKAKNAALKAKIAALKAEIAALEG

4H3129-AA = target: T6, 4H3129-AA; conditions: mean of both orientations
T6 chain: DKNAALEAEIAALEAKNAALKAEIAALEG

4H341-AA = target: T7, 4H341-AA; conditions: mean of both orientations
T7 chain: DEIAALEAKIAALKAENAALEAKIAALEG

4H3414-AA = target: T8, 4H3414-AA; conditions: mean of both orientations
T8 chain: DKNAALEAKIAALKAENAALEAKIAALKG

4H3595-AA = target: T9, 4H3595-AA; conditions: mean of both orientations
T9 chain: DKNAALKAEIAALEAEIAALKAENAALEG

4H3629-AA = target: T10, 4H3629-AA; conditions: mean of both orientations
T10 chain: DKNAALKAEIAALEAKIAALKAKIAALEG

4H3782-AA = target: T11, 4H3782-AA; conditions: mean of both orientations
T11 chain: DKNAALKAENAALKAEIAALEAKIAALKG

4H380-AA = target: T12, 4H380-AA; conditions: mean of both orientations
T12 chain: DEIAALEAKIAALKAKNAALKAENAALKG

4H3939-AA = target: T13, 4H3939-AA; conditions: mean of both orientations
T13 chain: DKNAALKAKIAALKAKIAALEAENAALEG

4H3969-AA = target: T14, 4H3969-AA; conditions: mean of both orientations
T14 chain: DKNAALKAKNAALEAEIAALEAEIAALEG

4H446-AA = target: T15, 4H446-AA; conditions: mean of both orientations
T15 chain: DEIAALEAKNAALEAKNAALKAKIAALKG

4H464-AA = target: T16, 4H464-AA; conditions: mean of both orientations
T16 chain: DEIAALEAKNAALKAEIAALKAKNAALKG

4H483-AA = target: T17, 4H483-AA; conditions: mean of both orientations
T17 chain: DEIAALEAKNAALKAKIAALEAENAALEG

4H63-AA = target: T18, 4H63-AA; conditions: mean of both orientations
T18 chain: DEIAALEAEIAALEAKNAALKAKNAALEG

APC2237-AA = target: T19, APC2237-AA
T19 chain: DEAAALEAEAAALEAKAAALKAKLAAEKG

APC232-AA = target: T20, APC232-AA; conditions: mean of both orientations
T20 chain: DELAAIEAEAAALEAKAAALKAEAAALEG

APC2405-AA = target: T21, APC2405-AA; conditions: mean of both orientations
T21 chain: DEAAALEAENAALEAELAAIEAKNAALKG

APC3645-AA = target: T22, APC3645-AA; conditions: mean of both orientations
T22 chain: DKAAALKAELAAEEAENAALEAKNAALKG

APC4011-AA = target: T23, APC4011-AA; conditions: mean of both orientations
T23 chain: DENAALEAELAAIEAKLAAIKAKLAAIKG

APC4264-AA = target: T24, APC4264-AA; conditions: mean of both orientations
T24 chain: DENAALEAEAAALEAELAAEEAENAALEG

APC4436-AA = target: T25, APC4436-AA; conditions: mean of both orientations
T25 chain: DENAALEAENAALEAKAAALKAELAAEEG

APC5383-AA = target: T26, APC5383-AA; conditions: mean of both orientations
T26 chain: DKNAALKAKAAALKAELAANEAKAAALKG

APC6108-AA = target: T27, APC6108-AA; conditions: mean of both orientations
T27 chain: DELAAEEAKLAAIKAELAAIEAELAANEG

APC7099-AA = target: T28, APC7099-AA; conditions: mean of both orientations
T28 chain: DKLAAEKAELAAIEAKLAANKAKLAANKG

APC8191-AA = target: T29, APC8191-AA; conditions: mean of both orientations
T29 chain: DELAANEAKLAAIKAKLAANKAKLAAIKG

APC8910-AA = target: T30, APC8910-AA; conditions: mean of both orientations
T30 chain: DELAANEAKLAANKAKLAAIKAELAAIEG

APC9096-AA = target: T31, APC9096-AA; conditions: mean of both orientations
T31 chain: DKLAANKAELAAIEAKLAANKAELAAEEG

APC9319-AA = target: T32, APC9319-AA; conditions: mean of both orientations
T32 chain: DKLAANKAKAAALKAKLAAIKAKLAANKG

4H3651-AA = target: T33, 4H3651-AA
T33 chain: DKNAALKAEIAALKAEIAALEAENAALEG

4H3705-AA = target: T34, 4H3705-AA; conditions: mean of both orientations
T34 chain: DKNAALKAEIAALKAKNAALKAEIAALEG

4H465-AA = target: T35, 4H465-AA; conditions: mean of both orientations
T35 chain: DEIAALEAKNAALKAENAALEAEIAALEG

4H486-AA = target: T36, 4H486-AA; conditions: mean of both orientations
T36 chain: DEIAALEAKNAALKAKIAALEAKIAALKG

4H535-AA = target: T37, 4H535-AA; conditions: mean of both orientations
T37 chain: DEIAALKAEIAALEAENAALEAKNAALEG

4H58-AA = target: T38, 4H58-AA; conditions: mean of both orientations
T38 chain: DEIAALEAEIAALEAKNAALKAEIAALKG

4H895-AA = target: T39, 4H895-AA; conditions: mean of both orientations
T39 chain: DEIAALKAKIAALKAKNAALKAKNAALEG

4H_APH = target: T40, 4H_APH; conditions: mean of both orientations
T40 chain: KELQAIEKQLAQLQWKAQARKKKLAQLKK

4H_BCR = target: T41, 4H_BCR; conditions: mean of both orientations
T41 chain: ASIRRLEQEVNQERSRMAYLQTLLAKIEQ

4H_GCN4 = conditions: mean of both orientations
GCN2_T = target: GCN2_T

4H_GCN4, sequence (chain, as listed by the source): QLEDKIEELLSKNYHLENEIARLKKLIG

B1: 4H2728-AA (peptide)
chain: DKIAALKAENAALEAKIAALEAKNAALKG
4H2728-AA
  interaction score: -0.514
4H2774-AA
  interaction score: -1.68
4H2903-AA
  interaction score: -1.25
4H2961-AA
  interaction score: -1.41
4H3049-AA
  interaction score: 0.953
4H3129-AA
  interaction score: 0.939
4H341-AA
  interaction score: -0.899
4H3414-AA
  interaction score: -1.03
4H3595-AA
  interaction score: -1.57
4H3629-AA
  interaction score: -0.438
4H3782-AA
  interaction score: -1.28
4H380-AA
  interaction score: -1.69
4H3939-AA
  interaction score: -1.01
4H3969-AA
  interaction score: -1.14
4H446-AA
  interaction score: -0.989
4H464-AA
  interaction score: 0.651
4H483-AA
  interaction score: 2.24
4H63-AA
  interaction score: -0.35

B2: APC2237-AA (peptide)
chain: DEAAALEAEAAALEAKAAALKAKLAAEKG
APC2237-AA
  interaction score: -1.33
APC232-AA
  interaction score: -1.19
APC2405-AA
  interaction score: -1.48
APC3645-AA
  interaction score: -1.41
APC4011-AA
  interaction score: 1.54
APC4264-AA
  interaction score: -1.65
APC4436-AA
  interaction score: -2.06
APC5383-AA
  interaction score: -1.52
APC6108-AA
  interaction score: -1.71
APC7099-AA
  interaction score: -1.59
APC8191-AA
  interaction score: -1.41
APC8910-AA
  interaction score: -1.72
APC9096-AA
  interaction score: -1.63
APC9319-AA
  interaction score: -2.27

B3: 4H3651-AA (peptide)
chain: DKNAALKAEIAALKAEIAALEAENAALEG
4H3651-AA
  interaction score: -0.561
4H3705-AA
  interaction score: -1.53
4H3782-AA
  interaction score: -0.2
4H465-AA
  interaction score: -1.28
4H486-AA
  interaction score: -0.82
4H535-AA
  interaction score: -1.16
4H58-AA
  interaction score: -0.388
4H895-AA
  interaction score: 2.08
4H_APH
  interaction score: -1.76
4H_BCR
  interaction score: -1.92
4H_GCN4
  interaction score: -1.81
GCN2_T
  interaction score: -1.92
